One substance from patent US20190390248 can be followed below.

The target in this data set is human prothrombin (UniProt P00734).

For “carinactivase-2 from Echis carinatus venom”, the “percent of S-2238 hydrolysed by the thrombin formed” value is “followed by carinactivase-2 (2.5%)”. Besides, where the note is “scale: nmol thrombin/mL/min/µmol prothrombin/µmol activator”, the Thrombin generation rate was found to be 1.91.
